Measurements from paper PMC11098746 (2024).

Key:
Assay in all cases: AVEXIS screen signal:noise (double-corrected)
[1] = biological target: T1, ADP262
T1 chain: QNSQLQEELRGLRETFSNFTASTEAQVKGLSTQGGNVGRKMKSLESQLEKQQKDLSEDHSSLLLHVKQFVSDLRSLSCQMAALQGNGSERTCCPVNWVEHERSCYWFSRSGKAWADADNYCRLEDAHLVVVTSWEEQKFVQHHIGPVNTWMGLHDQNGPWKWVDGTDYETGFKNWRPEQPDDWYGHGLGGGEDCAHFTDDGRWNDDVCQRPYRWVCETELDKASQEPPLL

[2] = biological target: T2, ADP385
T2 chain: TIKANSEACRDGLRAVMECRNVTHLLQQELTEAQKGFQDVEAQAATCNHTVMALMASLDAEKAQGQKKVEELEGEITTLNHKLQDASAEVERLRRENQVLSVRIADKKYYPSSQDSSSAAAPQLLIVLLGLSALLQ

[3] = biological target: T3, ADP318
T3 chain: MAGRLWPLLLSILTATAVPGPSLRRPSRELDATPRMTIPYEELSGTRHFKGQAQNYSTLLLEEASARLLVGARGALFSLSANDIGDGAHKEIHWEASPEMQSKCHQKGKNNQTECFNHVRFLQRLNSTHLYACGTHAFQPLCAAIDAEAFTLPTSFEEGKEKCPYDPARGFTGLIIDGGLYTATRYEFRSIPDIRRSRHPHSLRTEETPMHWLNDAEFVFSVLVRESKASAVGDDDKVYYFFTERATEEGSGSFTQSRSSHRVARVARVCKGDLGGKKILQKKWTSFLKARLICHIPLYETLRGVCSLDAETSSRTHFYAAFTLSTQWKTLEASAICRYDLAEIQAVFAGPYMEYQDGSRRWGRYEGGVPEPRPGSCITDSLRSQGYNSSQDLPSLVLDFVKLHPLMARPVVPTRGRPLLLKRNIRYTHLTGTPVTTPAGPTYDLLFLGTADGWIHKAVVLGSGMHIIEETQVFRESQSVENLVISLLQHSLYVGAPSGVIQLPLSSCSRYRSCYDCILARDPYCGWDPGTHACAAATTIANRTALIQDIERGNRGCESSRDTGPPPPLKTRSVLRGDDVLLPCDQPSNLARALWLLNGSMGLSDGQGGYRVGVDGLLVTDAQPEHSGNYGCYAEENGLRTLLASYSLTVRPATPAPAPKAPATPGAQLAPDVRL

[4] = biological target: T4, ADP378
T4 chain: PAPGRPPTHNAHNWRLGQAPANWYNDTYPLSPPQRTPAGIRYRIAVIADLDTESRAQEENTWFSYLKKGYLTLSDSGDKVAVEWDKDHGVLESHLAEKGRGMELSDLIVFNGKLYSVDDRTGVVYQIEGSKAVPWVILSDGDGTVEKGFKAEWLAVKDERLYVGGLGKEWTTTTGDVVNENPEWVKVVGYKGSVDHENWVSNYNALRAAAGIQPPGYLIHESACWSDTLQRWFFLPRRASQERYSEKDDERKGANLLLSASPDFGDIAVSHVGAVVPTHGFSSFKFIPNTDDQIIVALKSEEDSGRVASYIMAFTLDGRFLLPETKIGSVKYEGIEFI

[5] = biological target: T5, ADP155
T5 chain: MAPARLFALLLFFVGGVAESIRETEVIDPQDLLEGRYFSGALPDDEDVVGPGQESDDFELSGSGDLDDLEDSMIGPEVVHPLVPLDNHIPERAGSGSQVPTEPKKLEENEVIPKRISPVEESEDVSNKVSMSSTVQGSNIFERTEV

[6] = biological target: T6, ADP154
T6 chain: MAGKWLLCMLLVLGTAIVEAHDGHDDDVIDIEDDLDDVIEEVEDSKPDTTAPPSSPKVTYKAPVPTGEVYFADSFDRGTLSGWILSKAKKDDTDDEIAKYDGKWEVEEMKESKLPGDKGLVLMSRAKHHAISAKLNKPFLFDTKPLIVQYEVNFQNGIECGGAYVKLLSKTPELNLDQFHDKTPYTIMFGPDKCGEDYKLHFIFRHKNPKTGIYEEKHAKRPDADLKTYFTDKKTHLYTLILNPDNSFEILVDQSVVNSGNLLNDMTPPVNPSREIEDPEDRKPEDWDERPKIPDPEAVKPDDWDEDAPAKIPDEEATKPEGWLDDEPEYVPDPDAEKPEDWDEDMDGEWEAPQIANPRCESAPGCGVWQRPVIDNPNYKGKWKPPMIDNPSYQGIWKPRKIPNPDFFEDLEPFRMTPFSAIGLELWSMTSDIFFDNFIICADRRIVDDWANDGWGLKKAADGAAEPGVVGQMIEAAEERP

B1: ADP239 (protein)
chain: NNLDKNKNFIQYKNFKKNKAYKYKNNNNNIIIINSHSHSNSHSNSHSHSNSHSNSHSHSNSHSNSHSHSNSHSHSHSNSHSNSHSHSSTQNSLYHDTNQANFLKPTSFFLYKHHVYFNQKYKKDPNILNKLKVPRNHIFHINKCDLNYYIQNYEFFFFFPDYYEYSHLYIRLDKLFYFQRCGCDTNIKKTKKRNQNIFNNMLGMKEKDTYLQNEICDIYWNYLKDDNTYDKYNFAIINYIKNIIKKMYRYLYIYKVFVLKQFYRIVYYNQGIRNFYYMLFSYIYNKGSIIYNYNQMYFKKHRKKQTIIRSKRFMNEHIKEEDVDYNIVKDEKDKSIQSTEQKSYLKNNAIQYFQCFLDKAMENKNAENELDKWIDPQSKSCYCSEEFAEPCTSEDLVDINNINQIMDNAFCEYNNNDNNNNDNNKNNNNNINNIINIYDNNILGDNVKNIFVALSEYKILQCNDKEKKDIIKKEQLYNYCKYGLNIWDNKNMYDYLNCLNVISYNKKDDKTCIRKCENIKKLCNIVAQFYSFEVCKKYYENNKHTEDIYINNFKYFSDHCKYIDPTNRGLVLCKHKNVECVYSQWSEWSTCSKTCIENEYDTNSARTRTRILLNKFEVPSKSCSFIINEKNNLMDINFCSYLPFCNKNNDMKKKDDERIMPFVISIKEIEKLNTLKYLNNDDNDLLNENYKNYESVHKNNECKVTDMYQYEYAISYNEKNKACSCPNNQAPCYFKDIYNSESWKKSLHILCKHNPHINVITADYIIIDCNMAISIKKKEIAVNTYLAMTFNCHSDIFQYIFCAKNIQSIRTN
modifications: bait human Fc-tagged dimer; N-glycosylation sequons mutated in Plasmodium baits
B1 showed a binding score [1] of 6.08.

B2: ADP195 (protein)
chain: FRKYDKNKNKILISHSINNNNNAIKNNNNNNNAIKNNNNNNNAIKNNNNNNNAFSATSFSSEKNKNKAYTNVLKKKNIYIREESNKATNIKEDEEKNKKINNNDKETNYAFLSLKFFPFILTSLLHTGINQIPRNTEIELYEFEKSPMIRHMLVAEERKN
modifications: bait human Fc-tagged dimer; N-glycosylation sequons mutated in Plasmodium baits
For B2, the binding score [2] was 18.7 and the binding score [3] was 5.72.

B3: ADP244 (protein)
chain: GIITGKLNYFGTFSLKIFAKTYFQYKINTYSNLYSYCGISQEYNKAKSTCESCPIGTFWNSEKLLCENCQKYIENTATLKNGAKLKTDCLCSPGYEYSDKSSKCEKCKPGYYKKSVGNFICIKGCPINEKSITYGAKSYAEMDCKCIEGYYRKEDKCVLCLSNYYCPGNELIKPCDKNKISKEGVIHKNDCICKENYIKDNKNNNCVYCASIAKILGKPIYCSLCDPIYFHEDIYKNIFLLPNNIHNYGLINNIYNYDEDLSLQGNIMKYAYFHKTTNIERNFAHYINIKNIYHTFNNNINNYDYLTNSKFAIEIDIPEPKKCIFCDSGYYIKKKKCISCTTKYCEGFNHNPKACPKNSVVNKMKASSIFDCSCKRGYGILNERRNAYSNTITCQICPQNFFKHIISDDSCFPCPLYTYTLNQGATSILQCLPKKGYFIYMFKSINIDYLRYKFDINTENRIYNYFENNNKIFDEDVYNFFLNKQYSKFFYNTENK
modifications: bait human Fc-tagged dimer; N-glycosylation sequons mutated in Plasmodium baits
B3 was tested, and the binding score [4] was 6.32.

B4: ADP243 (protein)
chain: SDSYSTGGNEKEKIFMDNYKYMWTYIYFLQKRIMMKKLSHPLYMSKKFILLHNPKDIEEFRIPLKDTLWSYVDRNSIKGFININLDSIFDIDLKEYYVHDKENMANSEKSEDLECIDAYVQKTNEIYYNMADTKDEAYIFICKKCKHIYKDIKECREKSMQLMIQNMKITVPQIRLKYDKKNRNNEEIIINIPVTYVLSNLLSSLKKTVTYNTDDLNNACNVLIKMLHLDLLKILYNLQYHNGIFNGITEKYLIEFRNIFVKRQKTNTEDNNDMIWEECFVLKKSIDKIMNINSFLLTKSRNRYMDYLQNRRKRYRDILFMITYNVADMNLNTYIKSIYNYIHISTKIIEDIQYIYNQEVYATFFVRTELIETYLLRNPKQLKNTCSIYIMITISWFFNQINIGMYNKNKNVYDLFKEKFSKSNVKQIINSIYTNNVENKANILQICNDAMTNTIELIKKVIKNYYKQNNVLSNYNINFAGLIKFIDIQILRMKFIQSTLEKQPLIEYDTLNDDHLNNDAIIKRENMVCMMKYISNKINTYISLLKKSDLQTIMLQNYDKYNIYLDTYFTHNENVFFCSSPGQYLIIKIFFYSFFNILNIYG
modifications: bait human Fc-tagged dimer; N-glycosylation sequons mutated in Plasmodium baits
B4 showed a binding score [5] of 8.67 and a binding score [6] of 8.73.
